Source: patent US20180057581A1 (MorphoSys, published 2018)

Key:
Test in all cases: MSD specificity profiling, coated protein, Camille at 10 nM
[1] = biological target: Serum albumin (human) (human, UniProt P02768 25-609)
Method: (§1) For this specificity profiling test the different proteins and controls were coated on two 384-well MSD plates with a concentration of 1 μg/ml at 4° C. over night. Plates were blocked with BSA and washed three times with PBS with 0.05% (v/v) Tween 20. Antibody samples were diluted to 100 nM and 10 nM in assay buffer (PBS with 0.5% (w/v) BSA, 0.05% (v/v) Tween 20). […] Samples and controls were incubated for three hours at room temperature. The plates were washed three times and 30 μl detection antibody (ECL-labeled anti-human Fab) were added per well and incubated for 1 h. After washing, MSD Read Buffer T with surfactant was added and electrochemiluminescence signals were detected using a Sector Imager 6000 (Meso Scale Discovery, Gaithersburg, Md., USA).

[2] = biological target: T1, Fibrinogen (bovine) (bovine, UniProt P02672 20-615; P02676 1-468; P12799 25-444)
T1 sequence (looked up) 1: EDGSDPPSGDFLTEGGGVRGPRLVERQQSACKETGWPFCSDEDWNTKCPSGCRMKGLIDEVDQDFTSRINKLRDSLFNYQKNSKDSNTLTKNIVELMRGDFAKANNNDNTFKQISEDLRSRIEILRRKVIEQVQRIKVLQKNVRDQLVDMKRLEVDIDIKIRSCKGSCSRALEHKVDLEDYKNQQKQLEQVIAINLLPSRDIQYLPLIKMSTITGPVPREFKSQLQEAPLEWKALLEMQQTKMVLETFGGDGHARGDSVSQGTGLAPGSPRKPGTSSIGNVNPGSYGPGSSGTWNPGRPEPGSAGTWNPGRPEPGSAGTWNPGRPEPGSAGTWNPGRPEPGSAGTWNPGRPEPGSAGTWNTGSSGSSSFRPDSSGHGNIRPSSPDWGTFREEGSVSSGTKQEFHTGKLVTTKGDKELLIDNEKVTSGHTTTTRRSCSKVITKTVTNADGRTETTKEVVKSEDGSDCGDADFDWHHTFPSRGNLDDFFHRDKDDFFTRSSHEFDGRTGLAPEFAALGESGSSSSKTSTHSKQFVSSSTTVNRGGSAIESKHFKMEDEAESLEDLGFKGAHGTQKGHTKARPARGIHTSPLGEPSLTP
T1 sequence (looked up) 2: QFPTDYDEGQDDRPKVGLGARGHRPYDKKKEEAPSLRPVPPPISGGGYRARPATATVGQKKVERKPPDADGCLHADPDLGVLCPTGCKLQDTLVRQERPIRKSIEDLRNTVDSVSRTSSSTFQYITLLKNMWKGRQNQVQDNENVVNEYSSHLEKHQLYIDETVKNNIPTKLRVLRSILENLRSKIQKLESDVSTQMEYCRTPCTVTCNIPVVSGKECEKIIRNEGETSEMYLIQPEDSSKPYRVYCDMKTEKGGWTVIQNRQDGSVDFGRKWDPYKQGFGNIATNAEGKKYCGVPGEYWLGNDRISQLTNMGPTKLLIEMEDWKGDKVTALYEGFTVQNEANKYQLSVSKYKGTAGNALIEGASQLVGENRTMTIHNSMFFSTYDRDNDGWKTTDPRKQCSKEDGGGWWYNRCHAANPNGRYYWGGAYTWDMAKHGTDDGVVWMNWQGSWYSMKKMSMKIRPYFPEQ
T1 sequence (looked up) 3: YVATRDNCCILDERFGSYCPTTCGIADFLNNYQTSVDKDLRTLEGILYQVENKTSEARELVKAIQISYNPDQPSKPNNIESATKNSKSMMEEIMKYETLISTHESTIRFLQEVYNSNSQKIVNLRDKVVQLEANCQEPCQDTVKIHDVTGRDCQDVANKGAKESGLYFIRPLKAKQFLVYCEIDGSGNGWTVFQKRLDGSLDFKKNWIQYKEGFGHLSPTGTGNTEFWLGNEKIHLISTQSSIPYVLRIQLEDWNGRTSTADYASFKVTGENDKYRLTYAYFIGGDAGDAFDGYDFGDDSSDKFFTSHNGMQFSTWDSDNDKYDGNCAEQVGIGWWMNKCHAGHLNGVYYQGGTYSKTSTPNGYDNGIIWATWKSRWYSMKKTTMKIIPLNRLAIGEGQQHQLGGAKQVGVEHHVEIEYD
Method: as §1

[3] = biological target: Antitrypsin (human) (human, UniProt P01009 25-418)
Sequence of Antitrypsin (human) (P01009 25-418 limits assumed): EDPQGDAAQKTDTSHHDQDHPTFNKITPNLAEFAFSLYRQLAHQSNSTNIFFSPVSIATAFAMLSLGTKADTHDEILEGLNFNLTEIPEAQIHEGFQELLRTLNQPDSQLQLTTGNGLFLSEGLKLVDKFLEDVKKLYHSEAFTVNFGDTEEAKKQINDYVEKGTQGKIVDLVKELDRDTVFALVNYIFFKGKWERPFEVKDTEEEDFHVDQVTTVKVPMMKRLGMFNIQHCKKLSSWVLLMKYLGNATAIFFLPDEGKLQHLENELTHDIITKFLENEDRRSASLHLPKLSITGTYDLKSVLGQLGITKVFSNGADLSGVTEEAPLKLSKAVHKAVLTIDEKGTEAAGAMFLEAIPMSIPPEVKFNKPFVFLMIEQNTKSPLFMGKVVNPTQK
Method: as §1

[4] = biological target: T2, RNase A (cow) (cow, UniProt P61823 27-150)
T2 sequence (looked up): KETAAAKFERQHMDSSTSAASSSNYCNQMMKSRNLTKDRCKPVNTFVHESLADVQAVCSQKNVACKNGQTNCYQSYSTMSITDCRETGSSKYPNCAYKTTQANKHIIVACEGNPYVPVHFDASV
Method: as §1

Measured: signal normalized to reference antibody MOR03207

B1: Camille (format not stated) (antibody, V domains shown)
VH: QVQLQQSGPGLVKPSQTLSLTCAISGESVSTSSAAWNWIRQSPSRGLEWLGRTYYRSKWKHEYAVSVKSRITINPDTSKNQFSLQLNSVTPEDTAVYYCARDRYYYSAFDYWGQGTLVTVSS
VL: QSALTQPASVSGSPGQSITISCTGTSSDVGGYNSVSWYQQHPGKAPKLLIYAVSNRPSGVSNRFSGSKSGNTASLTISGLQAEDEADYYCASYDERFTRVFGGGTKLTVLG
notes: also called Antibody Camille
1 ratio: all assays above
